Experimental findings from patent publication US20240252686A1 (SKYLINE THERAPEUTICS, published 2024) are described below.

The term EC50 denotes the concentration at which the effect is half-maximal. Lower therefore signals higher potency in that assay. As usually defined, the IC50 is the concentration needed to halve the response being measured. Read a low IC50 as greater potency.

Experiment [1] deals with T1, VEGFA-165 (R&D systems 293-VE/CF) (human, UniProt P15692-4 27-191).
T1 construct: Coated on ELISA plates or added in solution to reporter cells; also called human VEGF; human VEGFA
Nature of the experiment: ELISA as in Example 5, VEGFA-165 coated, anti-HA detection. On the procedure:
(§1) After removing the blocker, the primary antibody (rabbit anti-HA, Thermo, PA1-985) was diluted (1:5000) with the blocking buffer (StartingBlock™ T20 (TBS) Blocking Buffer, Catalog number: 37543 of Thermo Fisher Scientific), and added to ELISA plate (50 μl/well), followed by the incubation at RT for 1h with 250 rpm gentle shaking. After washing with 1×TBST buffer for 3 times, the secondary antibody (Goat anti-rabbit-HRP, Invitrogen, 3146) was diluted (1:5000) with the blocking buffer, and added to the ELISA plate (50 μl/well), followed by the incubation at RT for 1h with gentle shaking. After washing the ELISA plate with 1×TBST for 3 times, the TMB substrate (Thermo Scientific, REF34028) was added the plate (50 μl/well); after the incubation at RT for 5-10 min, 2M H₂SO₄ was added to stop the TMB reaction. OD450 and OD525 of the ELISA plate were detected.
For orientation: ELISA stands for enzyme-linked immunosorbent assay.

The target of experiment [2] is T1, VEGFA-165 (R&D systems 293-VE/CF). Nature of the experiment: ELISA, VEGFA-165 coated, supernatant, anti-HA detection. On the procedure:
as §1

Experiment [3] has the same target. Nature of the experiment: competitive ELISA as in Example 7: inhibition of VEGFR2/KDR Fc binding to coated VEGFA-165. As for the experimental part: After removing the blocker, the detection antibody (rabbit anti-human FC HRP, Thermo) diluted 1:5000 with the blocking buffer, and added 50 μl/well incubated at RT for 1h with 250 rpm gentle shaking. After washing the ELISA plate with 1×TBST for 3 times, the TMB substrate was added the plate (50 μl/well); after the incubation at RT for 5-10 min, 2M H₂SO₄ was added to stop the TMB reaction. OD450 and OD525 of the ELISA plate were detected.
The mono-valent and bi-valent Nb24s in the supernatants were quantified by western blot as described in Example 2, and diluted to a series of concentrations.

T1 sequence (P15692 other isoform, or with tags, fused parts or gaps limits assumed): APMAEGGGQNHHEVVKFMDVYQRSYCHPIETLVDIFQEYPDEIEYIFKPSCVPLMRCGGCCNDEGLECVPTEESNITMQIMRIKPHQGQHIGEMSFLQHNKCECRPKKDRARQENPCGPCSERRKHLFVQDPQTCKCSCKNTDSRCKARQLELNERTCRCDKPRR

B1: bi-valent Nb24, product expressed by pGCB108-ITR130-AMDF1Nb24-5-(G4S)1-Nb24-5-HA (VHH)
chain: EVQLQESGGGLVQPGGSLRLSCTASGFTFDDPDVGWFRQAPGNECELVSTISKDGSTYYTDSVKGRFTISRDYAKNTVYLQMNSLRAEDTAVYYCAADSNPIAPIRTCLGWYNYWGQGTLVTVSSGGGGSEVQLQESGGGLVQPGGSLRLSCTASGFTFDDPDVGWFRQAPGNECELVSTISKDGSTYYTDSVKGRFTISRDYAKNTVYLQMNSLRAEDTAVYYCAADSNPIAPIRTCLGWYNYWGQGTLVTVSSYPYDVPDYA
notes: Two copies of Nb24 in a single polypeptide; supernatant of transfected Expi293 cells; also called 24-5-G4S1-24-5
For B1, the EC50 in experiment [1] was 400 nM.

B2: bi-valent Nb24, product expressed by pGCB108-ITR130-AMDF1Nb24-5-(G4S)3-Nb24-5-HA (VHH)
chain: EVQLQESGGGLVQPGGSLRLSCTASGFTFDDPDVGWFRQAPGNECELVSTISKDGSTYYTDSVKGRFTISRDYAKNTVYLQMNSLRAEDTAVYYCAADSNPIAPIRTCLGWYNYWGQGTLVTVSSGGGGSGGGGSGGGGSEVQLQESGGGLVQPGGSLRLSCTASGFTFDDPDVGWFRQAPGNECELVSTISKDGSTYYTDSVKGRFTISRDYAKNTVYLQMNSLRAEDTAVYYCAADSNPIAPIRTCLGWYNYWGQGTLVTVSSYPYDVPDYA
notes: Two copies of Nb24 in a single polypeptide; supernatant of transfected Expi293 cells; also called 24-5-G4S3-24-5
On to B2, for which the midpoint of the response in experiment [1], the EC50, lay at 346 nM.

B3: Beovu-scFv with HA tag, product expressed by pGCB108-ITR130-AMDF1-Beovu-scFv (scFv)
scFv: EIVMTQSPSTLSASVGDRVIITCQASEIIHSWLAWYQQKPGKAPKLLIYLASTLASGVPSRFSGSGSGAEFTLTISSLQPDDFATYYCQNVYLASTNGANFGQGTKLTVLGGGGGSGGGGSGGGGSGGGGSEVQLVESGGGLVQPGGSLRLSCTASGFSLTDYYYMTWVRQAPGKGLEWVGFIDPDDDPYYATWAKGRFTISRDNSKNTLYLQMNSLRAEDTAVYYCAGGDHNSGWGLDIWGQGTLVTVSSYPYDVPDYA
notes: Benchmark anti-VEGF scFv; supernatant of transfected Expi293 cells; also called Beovu-scFv-HA; F1F3-HA
In the case of B3, the binding result in experiment [2] is on record as “binds”.

B4: mono-valent Nb24 with HA tag, product expressed by pGCB108-ITR130-AMDF1huNb24-5-hGHpA (VHH)
VHH: EVQLQESGGGLVQPGGSLRLSCTASGFTFDDPDVGWFRQAPGNECELVSTISKDGSTYYTDSVKGRFTISRDYAKNTVYLQMNSLRAEDTAVYYCAADSNPIAPIRTCLGWYNYWGQGTLVTVSS
notes: Used as supernatant of transfected Expi293 cells, detected by anti-HA; The junction between Nb24 and the HA tag is not spelled out; also called HuNb24-5-HA; Nb24-5-HA
Regarding B4, the IC50 in experiment [3] was 132 nM.

B5: bi-valent Nb24, product expressed by pGCB108-ITR130-AMDF1Nb24-5-(G4S)2-Nb24-7-HA (VHH)
chain: EVQLQESGGGLVQPGGSLRLSCTASGFTFDDPDVGWFRQAPGNECELVSTISKDGSTYYTDSVKGRFTISRDYAKNTVYLQMNSLRAEDTAVYYCAADSNPIAPIRTCLGWYNYWGQGTLVTVSSGGGGSGGGGSEVQLQESGGGLVQPGGSLRLSCTASGFTFDDPDVGWFRQAPGNECELVSTISKDGSTYYTDSVKGRFTISRDYAKNTVYLQMNSLRAEDTAVYYCAADSNPIAPIRTCLGWYNYWGQGTLVTVSSYPYDVPDYA
notes: also called 24-5-G4S2-24-7
Consider B5, for which, in experiment [3], the IC50 was determined as 25.6 nM and the “fold better IC50 than mono-valent Nb24” value came to 5 fold.

B6: bi-valent Nb24, product expressed by pGCB108-ITR130-AMDF1Nb24-5-(G4S)2-Nb24-5-HA (VHH)
chain: B5 chain
notes: Two copies of Nb24 in a single polypeptide; supernatant of transfected Expi293 cells; also called 24-5-G4S2-24-5
On to B6, for which the EC50 in experiment [1] was found to be 376 nM.

B7: bi-valent Nb24, product expressed by pGCB108-ITR130-AMDF1Nb24-5-(G4S)4-Nb24-5-HA (VHH)
chain: EVQLQESGGGLVQPGGSLRLSCTASGFTFDDPDVGWFRQAPGNECELVSTISKDGSTYYTDSVKGRFTISRDYAKNTVYLQMNSLRAEDTAVYYCAADSNPIAPIRTCLGWYNYWGQGTLVTVSSGGGGSGGGGSGGGGSGGGGSEVQLQESGGGLVQPGGSLRLSCTASGFTFDDPDVGWFRQAPGNECELVSTISKDGSTYYTDSVKGRFTISRDYAKNTVYLQMNSLRAEDTAVYYCAADSNPIAPIRTCLGWYNYWGQGTLVTVSSYPYDVPDYA
notes: Two copies of Nb24 in a single polypeptide; supernatant of transfected Expi293 cells; also called 24-5-G4S4-24-5
In turn, B7 gave an EC50 in experiment [1] of 464 nM.
